The values that follow come from patent publication US20250171534A1 (D2M BIOTHERAPEUTICS, published 2025).

Assay [1] addresses T1, LILRB1-ECD-HIS (SinoBiological Cat #: 16014-H02H) (human, UniProt Q8NHL6 24-461).
T1 construct: Bought protein; also called monomeric antigen LILRB1-ECD-HIS; not shown: His tag
Kind of assay: SPR (Carterra LSA), antibody captured, antigen injected.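 Further: kd obtained from kinetic analysis of antibody binding to the antigen, with association and dissociation phases fitted in the instrument software.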

For assay [2], the target named is T2, LILRB2-ECD-HIS (SinoBiological Cat #: 14132-H02H) (human, UniProt Q8N423 22-460).
T2 construct: Bought protein; also called monomeric antigen LILRB2-ECD-HIS; not shown: His tag
Described as above.

Assay [3] has as its target T3, human LILRB2 expressed on cells (human, UniProt Q8N423 22-597).
T3 construct: In 293T cells it was expressed from pCMV3-LILRB2-GFP; also called CHO-LILRB2; Jurkat-LILRB2
Kind of assay: flow cytometry, CHO-LILRB2 cells.

For assay [4], the target named is T4, human LILRB1 expressed on cells (human, UniProt Q8NHL6 24-650).
T4 construct: In 293T cells it was expressed from pCMV3-LILRB1-GFP; also called CHO-LILRB1; Jurkat-LILRB1
Put plainly: flow cytometry, CHO-LILRB1 cells. Background: A flow cytometer gives signals particle by particle.

T1 sequence (Q8NHL6 other isoform, or with tags, fused parts or gaps H02H H02H): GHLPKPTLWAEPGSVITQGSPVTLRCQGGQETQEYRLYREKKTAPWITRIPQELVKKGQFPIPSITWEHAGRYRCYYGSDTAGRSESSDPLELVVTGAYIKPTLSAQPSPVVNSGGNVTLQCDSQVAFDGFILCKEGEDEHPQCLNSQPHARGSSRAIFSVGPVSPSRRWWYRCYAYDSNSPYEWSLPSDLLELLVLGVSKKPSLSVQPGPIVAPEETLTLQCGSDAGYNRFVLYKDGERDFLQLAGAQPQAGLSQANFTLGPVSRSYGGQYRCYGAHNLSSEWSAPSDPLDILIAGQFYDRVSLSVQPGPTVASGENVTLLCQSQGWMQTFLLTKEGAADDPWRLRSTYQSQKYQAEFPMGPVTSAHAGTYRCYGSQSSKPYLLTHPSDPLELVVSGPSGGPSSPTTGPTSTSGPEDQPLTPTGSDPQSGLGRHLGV
T4 sequence (Q8NHL6 other isoform, or with tags, fused parts or gaps limits assumed): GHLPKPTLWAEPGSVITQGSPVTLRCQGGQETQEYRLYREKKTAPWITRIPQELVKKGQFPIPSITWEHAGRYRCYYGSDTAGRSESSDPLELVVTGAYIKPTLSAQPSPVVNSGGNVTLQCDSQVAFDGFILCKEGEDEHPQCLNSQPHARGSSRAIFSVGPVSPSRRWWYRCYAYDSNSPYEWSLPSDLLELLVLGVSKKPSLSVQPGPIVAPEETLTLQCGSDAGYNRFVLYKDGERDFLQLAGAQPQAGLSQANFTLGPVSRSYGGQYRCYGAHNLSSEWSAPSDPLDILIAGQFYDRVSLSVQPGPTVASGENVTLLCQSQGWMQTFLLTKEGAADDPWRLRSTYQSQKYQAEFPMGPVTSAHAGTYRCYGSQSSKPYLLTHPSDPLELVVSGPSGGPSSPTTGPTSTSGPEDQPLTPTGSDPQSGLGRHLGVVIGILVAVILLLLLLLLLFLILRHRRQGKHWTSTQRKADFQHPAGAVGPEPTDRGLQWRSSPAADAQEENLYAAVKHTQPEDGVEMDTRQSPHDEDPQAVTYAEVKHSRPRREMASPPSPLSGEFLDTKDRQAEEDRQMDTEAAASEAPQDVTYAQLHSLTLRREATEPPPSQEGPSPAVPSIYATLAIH
T3 sequence (Q8N423 other isoform, or with tags, fused parts or gaps limits assumed): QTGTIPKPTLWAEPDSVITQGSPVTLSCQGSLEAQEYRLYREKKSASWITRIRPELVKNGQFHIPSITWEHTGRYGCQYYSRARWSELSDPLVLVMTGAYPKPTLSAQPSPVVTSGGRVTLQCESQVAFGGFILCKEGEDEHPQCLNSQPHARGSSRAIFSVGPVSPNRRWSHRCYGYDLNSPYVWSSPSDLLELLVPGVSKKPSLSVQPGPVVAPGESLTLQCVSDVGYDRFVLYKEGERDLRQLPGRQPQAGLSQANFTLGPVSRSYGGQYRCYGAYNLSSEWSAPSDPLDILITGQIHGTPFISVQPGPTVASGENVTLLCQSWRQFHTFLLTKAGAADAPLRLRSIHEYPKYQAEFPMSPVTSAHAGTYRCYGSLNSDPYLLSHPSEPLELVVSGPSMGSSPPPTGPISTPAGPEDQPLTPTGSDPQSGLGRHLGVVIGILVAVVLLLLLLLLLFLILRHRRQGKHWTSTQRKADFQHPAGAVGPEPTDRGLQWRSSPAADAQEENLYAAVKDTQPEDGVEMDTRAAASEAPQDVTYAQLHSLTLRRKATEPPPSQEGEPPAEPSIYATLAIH
T2 sequence (Q8N423 other isoform, or with tags, fused parts or gaps H02H H02H): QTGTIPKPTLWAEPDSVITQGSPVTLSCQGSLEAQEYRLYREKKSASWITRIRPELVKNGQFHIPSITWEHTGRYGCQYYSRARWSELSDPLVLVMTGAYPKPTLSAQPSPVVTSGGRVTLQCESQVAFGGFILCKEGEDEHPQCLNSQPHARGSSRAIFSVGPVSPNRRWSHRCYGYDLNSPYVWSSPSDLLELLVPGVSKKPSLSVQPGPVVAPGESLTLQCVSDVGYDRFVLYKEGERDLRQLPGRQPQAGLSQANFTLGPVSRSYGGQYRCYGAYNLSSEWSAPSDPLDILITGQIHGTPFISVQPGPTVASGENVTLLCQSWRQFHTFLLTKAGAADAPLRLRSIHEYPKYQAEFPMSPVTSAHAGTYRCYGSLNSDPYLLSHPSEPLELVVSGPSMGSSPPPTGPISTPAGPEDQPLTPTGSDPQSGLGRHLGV

B1: #21 (antibody, human IgG1, V domains shown)
VH: QVQLQQSGAELMKPGASVKISCKATGSTFSSYWIEWVKQRPGHGLEWIGEILPGSGSTNYNEKFKGKATFTADTSSNTAYMQLSSLTSEDSAVYYCARSGAGGYDSGAFAYWGQGTLVTVSA
VL: DIVLTQSPASLAVSLGQRATISCRASESVDTYGNSFMHWYQQKPGQPPKLLIYRTSNLESGIPARFSGSGSRTDFTLTINPVEADDVATYYCQQSNEDPWTFGGGTKLEIK
notes: also called D2M002-021
The Kd is the concentration at which binding is half-saturated. A higher Kd goes with a looser complex. For orientation: EC50 means the midpoint of the concentration-response curve. A low value points to a more potent agent. On to B1, for which the Kd in assay [1] amounted to 0.667 nM; in assay [2] it was 0.1 nM. Moreover, the EC50 came to 0.894 mg/L in assay [3] and 2.35 mg/L in assay [4]. Besides, the entries for the “gMFI (max)” value in assay [3] and in assay [4] were 25600 and 50600, respectively.

B2: #41 (antibody, human IgG1, V domains shown)
VH: DVQLQQSGAELMKPGASVKISCKATGYTFSSSWIEWVKQRPGHGLEWIGEILPGSGNTSYNEKFKGKATFTADTSSSAAYMQLSSLTSEDSAVYYCARSGLYYDYGGFAYWGQGTLVTVSA
VL: DIVLTQSPASLAVSLGQRATISCRASESVDTYGNSFMHWYQQKPGQPPKLLIYRTSNLESGIPARFSGSGSRTDFTLTINPVEADDVATYYCQQSNEDPFTFGSGTKLEIK
notes: also called D2M002-041
As for B2, the Kd in assay [1] worked out at 23.2 nM; in assay [2] it was 0.624 nM.

B3: #20 (antibody, human IgG1, V domains shown)
VH: QVQFQQSGVELMKPGASVKISCKATGNTFSNYWIEWVKQRPGHDLEWIGEILPGSGSTNYNEKFKGKATFTADTSSNTAYMQLNSLTSEDSAVYYCARSGAGGYDSGAFAYWGQGTLVTVSA
VL: DIVMTQSPASLAVSLGQRATISCRASESVDSYGNSFMHWYQQKPGQPPKLLIYRTSNLESGIPARFSGSGSRTDFTLTINPVEADDVATYYCQQSNEDPWTFGGGTKLEIK
notes: also called D2M002-020
Regarding B3, the Kd in assay [1] turned out to be 1.19 nM; in assay [2] it was 0.2 nM.

B4: #18 (antibody, human IgG1, V domains shown)
VH: EVQLQQSGAELMKPGASVKISCKTTGNTFSSYWIEWVKQRPGHDLEWIGEILPGSGSTNYNEKFKGKATFTADTSSNTAYMQLNSLTSEDSAVYYCARSGAGGYDSGAFAYWGQGTLVTVSA
VL: DIVLTQSPASLAVSLGQRATISCRASESVDSYGNSFMHWYQQKPGQPPKLLIYRTSNLESGIPARFSGSGSRTDFTLTINPVEADDVATYYCQQSNEDPWTFGGGTKLEIK
notes: also called D2M002-018
Turning to B4, the Kd in assay [1] came out at 1.36 nM; in assay [2], 0.0526 nM.

B5: #29 (antibody, human IgG1, V domains shown)
VH: EVQLQQSGAEVKKPGASVKISCKATGYTFSSYWIEWVKQRPGHGLEWIGEILPGSGSTNYNEKFKGKATFTADTSSNTAYMQLSSLTSEDFTVYYCARSGAGGYDSGAFGYWGQGTLVTVSS
VL: DIVMTQSPASLAVSLGQRATISCRASESIDTYGNSFMHWYQQKPGQPPKLLIYRASNLESGIPARFSGSGSRTDFTLTINPVEADDVATYYCQQSNEDPWTFGGGTKLEIK
notes: also called D2M002-029
Consider B5, for which the Kd in assay [1] stood at 28.7 nM; in assay [2] it was 1.59 nM.

B6: #12 (antibody, human IgG1, V domains shown)
VH: QIQLLQSGAELMKPGASVKISCKATGYTFSNYWIEWVKQRPGHGLEWIGEILPGSGSTNYNEKFKGKATFTADTSSNTAYMQLSSLTSEDSAVYYCARSGAGGYDSGAFAYWGQGTLVTVSS
VL: DIVLTQSPASLAVSLGQRATISCRASESVDSYGNSFMHWYQQKPGQPPKLLIYRTSNLESGIPARFSGSGSRTDFTLTINPVEADDVAAYYCQQSNEDPWTFGGGTKLEIK
notes: also called D2M002-012
On to B6, for which the Kd was 1.6 nM in assay [1] and 0.2 nM in assay [2].

B7: #35 (antibody, human IgG1, V domains shown)
VH: QVQLQQSGAELMKPGASVRISCKATGYTFSSSWIEWVKQRPGHGLEWIGEILPGSGSTNYNEKFKGKATFTADTSSNTAYMQLSSLTSEDSAVYYCARSGAGGYDSGAFTYWGQGTLVTVSA
VL: DIVLTQSPASLAVSLGQRATISCRASESIDTYGNSFMHWYQQKPGQPPKLLIYRASNLESGIPARFSGSGSRTDFTLTINPVEADDVATYYCQQSNEDPWTFGGGTKLEIK
notes: also called D2M002-035
B7: the Kd in assay [1] was found to be 10.4 nM; in assay [2] it was 0.617 nM.

B8: #17 (antibody, human IgG1, V domains shown)
VH: EVQLQQSGAELMKPGASVKISCKTTGNTFSSYWIEWVKQRPGHDLEWIGEILPGSGSSNYNEKFKGKATFTADTSSNTAYMQLNSLTSEDSAVYYCARSGAGGYDSGAFAYWGQGTLVTVSA
VL: DIVLTQSPASLAVSLGQRATISCRASESVDSYGNSFMHWYQQKPGQPPKLLIYRTSNLESGIPSRFSGSGSRTDFTLTINPVEADDVATYYCQQSNEDPWTFGGGTKLEIK
notes: also called D2M002-017
Regarding B8, the Kd in assay [1] was found to be 1.18 nM; in assay [2], 0.0476 nM.

B9: #40 (antibody, human IgG1, V domains shown)
VH: EVQLQQSGAELMKPGASVKISCKTTGNTFSSYWIEWVKQRPGHDLEWIGEILPGRGSTNNNEKFKGKAPFTADTSSNTAYMQLNSLTSEDSAVYYCARSGGGGYDSGAFAYWGQGTLVTVSA
VL: DIVLTQSPASLAVSLGQRATISCRASESVDTYGNSFMHWYQQKPGQPPKLLIYRTSNLESGIPARFSGSGSRTDFTLTINPVEADDVATYYCQQSNEDPWTFGGGTKLEIK
notes: also called D2M002-040
With B9, the Kd in assay [1] worked out at 34.4 nM; in assay [2], 3.05 nM.

B10: #23 (antibody, human IgG1, V domains shown)
VH: QVQMQQPGAELMKPGASVKISCKATGYTFSRYWIEWVKQRPGHGLEWIGEILPGDGSTNYNAKFKGQATFTADTSSNTAYMQFSSLTYEDSAVYYCARSGAGGYDSGAFAYWGQGTLVTVSS
VL: DIVLTQSPASLAVSLGQRATISCRASESVDTYGNSFMHWYQQKPGQPPKLLIYRTSNLESGIPARFSGSGSRTDFTLTINPVEADDVATYYCQQSNEDPWTFGGGTKLEIK
notes: also called D2M002-023
Consider B10, for which the Kd in assay [1] was 7.65 nM; in assay [2], 0.636 nM.

B11: #28 (antibody, human IgG1, V domains shown)
VH: EVQLQQSGAELMKPGASVKISCKATGYTFSSYWIEWVKQRPGHGLEWIGEILPGSGSTNYNEKFKGKATFTADTSSNTAYMQLSSLTSEDSAVYYCARSGAGGYDSGAFAYWGQGTLVTVSS
VL: DIVMTQSPASLAVSLGQRATISCRASESVDTYGNSFMHWYQQKPGQPPKLLIYRTSNLESGIPARFSGSGSRTDFTLTINPVEADDVATYYCQQSNEDPWTFGGGTKLEIK
notes: also called D2M002-028
B11: the Kd in assay [1] was 0.882 nM; in assay [2], 0.0385 nM. Moreover, the EC50 in assay [3] amounted to 0.836 mg/L; in assay [4] it was 1.83 mg/L. Also, the “gMFI (max)” value in assay [3] is 26600; in assay [4], 40300.

B12: #36 (antibody, human IgG1, V domains shown)
VH: QVQLQQSGAELMKPGASVRISCKATGYTFSSSWIEWVKQRPGHGLEWIGEILPGSGTTNYNEKFKGKATFTADTSSNTAYMQLSSLTSEDSAVYYCARSGAGGYDSGAFTYWGQGTLVTVSA
VL: DIVLTQSPASLAVSLGQRATISCRASESIDTYGNSFMHWYQQKPGQPPKLLIYRASNLESGIPARFSGSGSRTDFTLTINPVEADDVATYYCQQSNEDPWTFGGGTKLEIK
notes: also called D2M002-036
Turning to B12, the values for the Kd in assay [1] and in assay [2] were 3.44 nM and 0.145 nM, respectively.

B13: #31 (antibody, human IgG1, V domains shown)
VH: QVQMQPFGAELMKPGASVRISCKATGYTFSSSWIEWVKQRPGHGLEWIGEILPGSGTTNYNEKFKGKATFTADTSSNTAYMQLSSLTSEDSAVYYCARSGAGGYDSGAFTYWGQGTLVTVSA
VL: DIVLTQSPASLAVSLGQRATISCRASESIDTYGNSFMHWYQQKPGQPPKLLIYRASNLESGIPARFSGSGSRTDFTLTINPVEADDVATYYCQQSNEDPWTFGGGTKLEIK
notes: also called D2M002-031
Turning to B13, the figures for the Kd in assay [1] and in assay [2] were 20 nM and 1.26 nM, respectively.
